In paper PMC3944073 one finds Kd data, which are given here for one substance.

For the test, the target named is GFP-β-DGNLS fusion protein. Description: AlphaScreen or HTRF; ALPHAScreen; His6-tagged GFP-β-DG-NLS at a fixed amount per well with increasing GST-ezrin, GST-IMPα2/β1 or GST alone (0-60 nM); nickel chelate acceptor beads and streptavidin donor beads; room temperature; apparent dissociation constants from sigmoidal fits.

For the substance “GST-ezrin (mouse) (from UniProt P26040 1-586) (natural protein)”, the Kd amounted to 2.22 nM.
